For test [1], the target named is human mu opioid receptor (human) (UniProt P35372).
Test [2] shares this target. As to the kind of experiment: radioligand binding; displacement of [3H]DAMGO from commercial membranes of CHO cells transfected with the human recombinant mu opioid receptor; Ki, mean ± SEM, n ≥ 3. (In a radioligand displacement assay an active substance lowers the binding of a labelled ligand.)

The source of these data is article PMC9998502, “Functional selectivity of EM-2 analogs at the mu-opioid receptor” (Frontiers in Pharmacology, 2023).

Non-standard residues stand in square brackets, D forms with d. No end group written: not given here. Dmt = Cc1cc(O)cc(C)c1C[C@H](N)C(=O)O

human mu opioid receptor (human), sequence (P35372 whole entry): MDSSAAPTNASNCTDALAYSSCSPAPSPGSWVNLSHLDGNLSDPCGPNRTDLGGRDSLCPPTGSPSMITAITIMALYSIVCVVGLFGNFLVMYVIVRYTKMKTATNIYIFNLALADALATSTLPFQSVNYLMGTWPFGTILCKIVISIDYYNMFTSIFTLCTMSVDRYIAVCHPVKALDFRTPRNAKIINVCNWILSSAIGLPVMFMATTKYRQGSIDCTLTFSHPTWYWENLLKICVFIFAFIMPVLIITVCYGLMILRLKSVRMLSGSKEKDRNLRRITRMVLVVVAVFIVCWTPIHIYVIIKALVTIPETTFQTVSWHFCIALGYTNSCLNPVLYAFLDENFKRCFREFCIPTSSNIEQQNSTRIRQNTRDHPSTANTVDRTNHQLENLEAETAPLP

As for [Dmt]PFF-NH2 [EM-2 analog 1 (Dmt-Pro-Phe-Phe-NH2)], the calcium mobilization, CHO cells with human mu receptor and Gαqi5: α (Emax ratio to the standard agonist) in test [1] turned out to be 0.85. The Ki in test [2] came out at 0.54 nM.

As to YPFF-NH2 [endomorphin-2 (Tyr-Pro-Phe-Phe-NH2)], in test [1], the calcium mobilization, CHO cells with human mu receptor and Gαqi5: α (Emax ratio to the standard agonist) is 1. In addition, the Ki in test [2] turned out to be 1.97 nM.

The Ki is the equilibrium dissociation constant of an inhibitor or competing ligand from its target.
